Reference: US20130130988A1
“And” between values parts separate entries of the source, which are not always exact repeats. Equal entries are not always repeated.

Experiments:
galectin-1 = experiment: microplate binding assay, complex adsorbed in wells, biotin-streptavidin visualisation; conditions: scale: µg of macromolecular complex per 10 ng of galectin-1
TLR-6 = experiment: as above

concentration at saturation (galectin-1)	concentration at saturation (µg of macromolecule per 10 ng of TLR6) (TLR-6)	Substance
20 and 10	10 and 20	macromolecular complex of Bifidobacterium longum CBi0703 (CNCM I-3994), prepared according to example 1 (fermentation with pH regulated)
10 and 20	10 and 20	macromolecular complex of Bifidobacterium longum CBi0703 (CNCM I-3994), prepared according to example 2 (fermentation with pH not regulated)
